Test results: article PMC9162472, “Improved furfural tolerance in Escherichia coli mediated by heterologous NADH-dependent benzyl alcohol dehydrogenases” (Biochemical Journal, 2022)

Columns and labels:
Test in all cases: purified protein
Conditions in all cases: 0.2 mM NADH, 50 mM potassium phosphate pH 7.2, 200 mM NaCl, 37 °C, error is 95% CI, kcat m^-1 [sic]
purified protein [1] = substrate: CCCCCC=O; format: biochemical, Burkholderia ambifaria
purified protein [2] = substrate: O=Cc1ccc(CO)o1; format: biochemical, Burkholderia ambifaria
purified protein [3] = substrate: O=Cc1ccco1; format: biochemical, Burkholderia ambifaria
purified protein [4] = substrate: O=Cc1ccccc1; format: biochemical, Burkholderia ambifaria
purified protein [5] = substrate: O=Cc1ccc(CO)o1; format: biochemical, Pseudomonas putida
purified protein [6] = substrate: O=Cc1ccco1; format: biochemical, Pseudomonas putida
purified protein [7] = substrate: O=Cc1ccccc1; format: biochemical, Pseudomonas putida
purified protein [8] = substrate: O=Cc1ccc(CO)o1; format: biochemical, Acinetobacter calcoaceticus
purified protein [9] = substrate: O=Cc1ccco1; format: biochemical, Acinetobacter calcoaceticus
purified protein [10] = substrate: O=Cc1ccccc1; format: biochemical, Acinetobacter calcoaceticus

B1: BaBAD (Burkholderia ambifaria MC40-6) (protein)
chain: MYTENDTRAVTAAVARAAGAPFSIEPARIRAPRGDEVLVRVVATGLCHTDLIVRDQYYPVPLPAVLGHEGAGVVEAVGPNVKTLAAGDHVVLTYGACGHCASCAGGHGAYCRQFFALNFGGADADGQTALRDAAGEPLHDHFFAQSSFASYALARENNAIKVPKEAPLELLGPLGCGIQTGAGAVINSLAVRTGSSFASFGAGAVGMSAVMAARIAGATTIIAVDIVPSRLALALELGATHAINSKEVDVVDAIREITGGGVDYALESTGLPAVLSQGIDALGSRGTMGVVGAPKLGTKAEFDVNSLLLGGHTIRGIVEGDSVPQTFIPQLVQLHLQGRFPFDRLVKFYPLEQINQAAADSSSGITLKPILRLPH
Km (purified protein [1]): 672 ± 374 µM
kcat (purified protein [1]): 0.758 ± 0.163 s⁻¹
kcat/Km (purified protein [1]): 1170 ± 667 M⁻¹ s⁻¹
Km (purified protein [2]): 377 ± 242 µM
kcat (purified protein [2]): 1.09 ± 0.192 s⁻¹
kcat/Km (purified protein [2]): 3330 ± 1670 M⁻¹ s⁻¹
Km (purified protein [3]): 75.2 ± 62.2 µM
kcat (purified protein [3]): 0.575 ± 0.112 s⁻¹
kcat/Km (purified protein [3]): 8330 ± 6670 M⁻¹ s⁻¹
Km (purified protein [4]): 78.3 ± 30 µM
kcat (purified protein [4]): 0.865 ± 0.0785 s⁻¹
kcat/Km (purified protein [4]): 11700 ± 5000 M⁻¹ s⁻¹

B2: XylB (Pseudomonas putida) (protein)
chain: EIKAAIVRQKNGPFLLEHVALNEPAEDQVLVRLVATGLCHTDLVCRDQHYPVPLPMVFGHEGAGVVERVGSAVKKVQPGDHVVLTFYTCGSCDACLSGDPTSCANSFGPNFMGRSVTGECTIHDHQGAEVGASFFGQSSFATYALSYERNTVKVTKDVPLELLGPLGCGIQTGAGSVLNALNPPAGSSIAIFGAGAVGLSAVMAAVVAGCTKIIVVDVKENRLKLADELGATHVINAASSDPVEKIKEICAGGVPYVLETSGLPSVLQQAILSSAIGGEIGIVGAPPMGATIPVDINFLLFNRKLRGIVEGQSISDIFIPRLVELYRQGKFPFDKLLKFYSFDEINQAAEDSENGITLKPVLRIS
Km (purified protein [5]): 461 ± 52.1 µM
kcat (purified protein [5]): 1.16 ± 0.0453 s⁻¹
kcat/Km (purified protein [5]): 3330 ± 333 M⁻¹ s⁻¹
Km (purified protein [6]): 234 ± 153 µM
kcat (purified protein [6]): 2.45 ± 0.467 s⁻¹
kcat/Km (purified protein [6]): 10000 ± 6670 M⁻¹ s⁻¹
Km (purified protein [7]): 21.2 ± 16.2 µM
kcat (purified protein [7]): 0.192 ± 0.0343 s⁻¹
kcat/Km (purified protein [7]): 8330 ± 6670 M⁻¹ s⁻¹

B3: AcBAD (Acinetobacter calcoaceticus) (protein)
chain: MSELKDIIAAVTPCKGADFELQALKIRQPQGDEVLVKVVATGMCHTDLIVRDQYYPVPLPAVLGHEGSGIIEAIGPNVTELQVGDHVVLSYGYCGKCTQCNTGNPAYCSEFFGRNFSGADSEGNHALCTHDQGVVNDHFFAQSSFATYALSRENNTVKVTKDVPIELLGPLGCGIQTGAGACINALKVTPASSLVTWGAGAVGLSALLAAKVCGASIIIAVDIVESRLELAKQLGATHVINSKTQDPVAAIKEITDGGVNFALESTGRPEILKQGVDALGILGKIAVVGAPQLGTTAQFDVNDLLLGGKTILGVVEGSGSPKKFIPELVRLYQQGKFPFDQLVKFYAFDEINQAAIDSHKGITLKPIIKIA
Km (purified protein [8]): 294 ± 277 µM
kcat (purified protein [8]): 0.565 ± 0.146 s⁻¹
kcat/Km (purified protein [8]): 1670 ± 1670 M⁻¹ s⁻¹
Km (purified protein [9]): 359 ± 224 µM
kcat (purified protein [9]): 2.73 ± 0.467 s⁻¹
kcat/Km (purified protein [9]): 8330 ± 3330 M⁻¹ s⁻¹
Km (purified protein [10]): 412 ± 251 µM
kcat (purified protein [10]): 6.57 ± 1.34 s⁻¹
kcat/Km (purified protein [10]): 16700 ± 10000 M⁻¹ s⁻¹
